Reference: publication PMC4158700

How the values were obtained:
[1] = target: recombinant wild type factor XI zymogen (fXIWT) (human); assay: non-reducing SDS-PAGE
[2] = target: factor XIa with Arg184 replaced with Gly (fXIa-Gly184) (human) (UniProt P03951)
[3] = target: factor XIa with Ile183, Arg184 and Asp185 replaced with alanine (fXIa-Ala183-185) (human) (UniProt P03951)
[4] = target: factor XIa with Arg184 replaced with Gly (fXIa-Gly184) (human) (UniProt P03951); assay: numerical fitting of full progress curves of fIX cleavage
[5] = target: factor XIa with Ile183, Arg184 and Asp185 replaced with alanine (fXIa-Ala183-185) (human) (UniProt P03951); assay: as above
[6] = target: factor XIa with Arg184 replaced with Gly (fXIa-Gly184) (human) (UniProt P03951); assay: inhibition of chromogenic substrate
[7] = target: recombinant wild type factor XIa (fXIaWT) (human) (UniProt P03951); assay: inhibition of chromogenic substrate
[8] = target: plasma fXIa with the active site irreversibly blocked by FPR-CMK (UniProt P03951); assay: SPR
[9] = target: recombinant factor XI zymogen with Arg184 replaced with Gly (fXI-Gly184) (human); assay: non-reducing SDS-PAGE

## recombinant wild type factor XI zymogen (fXIWT) (natural protein)
[1]
  stoichiometry N: 2

## factor IXα (fIXα), fIX cleaved at the Arg145-Ala146 bond (natural protein)
[2]
  Km2 for cleavage after Arg180 (KinTek fit of progress curves): 0.2 µM
[3]
  Km2 for cleavage after Arg180 (KinTek fit of progress curves): 3 µM
[4]
  Ki1 (k-3/k3, fIXα released after the cleavage at Arg145): 0.4 µM
[5]
  Ki1 (k-3/k3, fIXα released after the cleavage at Arg145): 6 µM

## factor IXaβ (fIXaβ), fIX cleaved at Arg145-Ala146 and Arg180-Val181 (enzyme)
[6]
  Ki: 190 nM
[7]
  Ki: 90 nM
[4]
  Ki: 500 nM
[5]
  Ki: 290 nM

## recombinant wild type factor IX (fIXWT) (from UniProt P00740 47-461) (natural protein)
[8]
  Kd: 350 nM

## recombinant factor XI zymogen with Arg184 replaced with Gly (fXI-Gly184) (natural protein)
[9]
  stoichiometry N: 2
